In patent US20210252145A1 (CELLASTER, published 2021):

Columns and labels:
[1] = biological target: T1, FERM of EPB41L5 (N-terminal FERM domain construct, Flag-tagged) (human, UniProt Q9HCM4 43-327); test: Western blot of transfected 293T cells
T1 construct: the real construct is only its N-terminal FERM domain; not shown: Flag tag from vector pSG5-KF2M1-Flag

[2] = biological target: T2, Δ619-624 of EPB41L5 (Flag-tagged deletion construct) (human, UniProt Q9HCM4 1-733); test: immunofluorescent staining of MKN28 cells co-transfected with EPB41L5 siRNA and construct
T2 construct: also called A619-624; not shown: Flag tag from vector pSG5-KF2M1-Flag
Description: At this time, the immunofluorescent staining was performed using anti-EPB41L5 mAb and anti-Flag antibodies. Green represents EPB41L5, red represents Flag tag, blue represents Hochest, and scale bars represent 20 μm.
Considering the characteristics of nonpermeabilized immunofluorescent staining, in order to inhibit expression of endogenous EPB41L5, cells were co-transfected with EPB41L5 siRNA and any one plasmid selected from among FL (full length) of EPB41L5, FERM of EPB41L5, C-terminus of EPB41L5 and Δ619-624 of EPB41L5. Then, expression of exogenous EPB41L5 was analyzed using anti-Flag antibody. EPB41L5 expression was detected in […] transfected with FL and C-terminal constructs and in MKN28 cells […] with A619-624 (FIG. 6H).

T1 sequence (Q9HCM4 43-327): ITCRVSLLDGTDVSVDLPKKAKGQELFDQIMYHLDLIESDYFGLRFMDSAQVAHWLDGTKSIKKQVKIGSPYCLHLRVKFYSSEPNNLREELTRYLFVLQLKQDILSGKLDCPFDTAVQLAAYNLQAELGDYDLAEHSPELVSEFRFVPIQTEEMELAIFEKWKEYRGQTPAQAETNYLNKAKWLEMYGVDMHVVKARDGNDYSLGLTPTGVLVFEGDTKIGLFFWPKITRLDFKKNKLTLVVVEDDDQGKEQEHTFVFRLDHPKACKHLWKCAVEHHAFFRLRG
T2 sequence (Q9HCM4 other isoform, or with tags, fused parts or gaps mutant): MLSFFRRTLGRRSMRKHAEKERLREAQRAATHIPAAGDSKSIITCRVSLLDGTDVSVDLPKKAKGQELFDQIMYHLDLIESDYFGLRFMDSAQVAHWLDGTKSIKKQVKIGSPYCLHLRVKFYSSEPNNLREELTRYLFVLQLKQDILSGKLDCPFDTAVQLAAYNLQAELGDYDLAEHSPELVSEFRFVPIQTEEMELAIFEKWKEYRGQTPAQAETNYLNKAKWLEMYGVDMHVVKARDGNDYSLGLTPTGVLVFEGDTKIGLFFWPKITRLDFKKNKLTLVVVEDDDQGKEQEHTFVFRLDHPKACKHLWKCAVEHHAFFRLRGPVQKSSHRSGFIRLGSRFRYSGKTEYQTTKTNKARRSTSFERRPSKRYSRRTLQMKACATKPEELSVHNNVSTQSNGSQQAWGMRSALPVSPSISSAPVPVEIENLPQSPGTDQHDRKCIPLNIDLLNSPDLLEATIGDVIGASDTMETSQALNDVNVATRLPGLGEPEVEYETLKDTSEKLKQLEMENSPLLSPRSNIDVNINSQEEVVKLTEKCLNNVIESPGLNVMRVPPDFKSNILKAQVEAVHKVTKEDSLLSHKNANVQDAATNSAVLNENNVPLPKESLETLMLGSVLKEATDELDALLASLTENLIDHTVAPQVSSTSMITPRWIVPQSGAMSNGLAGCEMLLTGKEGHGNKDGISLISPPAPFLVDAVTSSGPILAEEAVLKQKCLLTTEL

B1: anti-EPB41L5 monoclonal antibody (antibody, V domains shown)
VH: QVQLKESGTVLARPGASVKMSCKASGYTFTSYWMHWVKQRPGQGLEWIGAIYPGNSDTSYNQKFKDKAKLTAVTSTSTAYMELSSLTDEASAVYYCTRGGKLPFAMDYWGQGTSVTVSS
VL: DVLMTQTPLSLPVSLGDQASMSCRSSQSLVHSNGNTYLHWYLQKPGQSPKLLIYKVSNRFSGVPDRFSGSGSGTDFTLKISRVEAEDLGVYFCSQSTHVPWTFGGGTKLEIK
notes: also called anti-EPB41L5 mAb; EPB41L5 mAb
B1: no binding [1]; no binding [2].
